According to US20220348651A1, “ENTPD2 ANTIBODIES, COMBINATION THERAPIES, AND METHODS OF USING THE ANTIBODIES AND COMBINATION THERAPIES” (Novartis AG, priority 2019, published 2022):

Assays:
B16LM3 tumor model = test: Syngeneic B16LM3 tumor model, combination with anti-PD-1 Ab; assay type: in vivo, C57BL/6 mice; conditions: mAb13 15 mg/kg in combination with anti-PD-1 Ab 10 mg/kg i.p., days 1, 5, 8, 12, 15; relative to No Treatment, Isotype Control or anti-PD-1 Ab
Procedure: B16LM3 model was established in female C57BL/6 mice by subcutaneous injection of 0.5×10^6 cells into the right flank of each mouse. The day after implant mice were randomized into treatment groups (n=10 per group). Mice received treatments of either anti-mouse ENTPD2 mAb13 or a non-specific mIgG2a isotype control (clone MOPC-173, BioLegend, San Diego, Calif.) at a final dose 15 mg/kg on Day 1, 5, 8, 12, 15.
Anti-PD-1 Ab (clone RMP1-14 Bio X Cell, West Lebanon, N.H.) or non-specific rIgG2a isotype control (clone RTK2758, BioLegend, San Diego, Calif.) were delivered i.p. at a final dose of 10 mg/kg on days 1, 5, 8, 12, 15. All doses were adjusted to individual mouse body weights.

ENTPD2 = target: T1, ENTPD2 (Homo sapiens, UniProt Q9Y5L3); test: FACS binding to human ENTPD2 expressing cells (apparent FACS affinity); set-up: expressed in transfected cells; host or cells: NIH/3T3 (retroviral transduction)
T1 sequence (Q9Y5L3 1-495): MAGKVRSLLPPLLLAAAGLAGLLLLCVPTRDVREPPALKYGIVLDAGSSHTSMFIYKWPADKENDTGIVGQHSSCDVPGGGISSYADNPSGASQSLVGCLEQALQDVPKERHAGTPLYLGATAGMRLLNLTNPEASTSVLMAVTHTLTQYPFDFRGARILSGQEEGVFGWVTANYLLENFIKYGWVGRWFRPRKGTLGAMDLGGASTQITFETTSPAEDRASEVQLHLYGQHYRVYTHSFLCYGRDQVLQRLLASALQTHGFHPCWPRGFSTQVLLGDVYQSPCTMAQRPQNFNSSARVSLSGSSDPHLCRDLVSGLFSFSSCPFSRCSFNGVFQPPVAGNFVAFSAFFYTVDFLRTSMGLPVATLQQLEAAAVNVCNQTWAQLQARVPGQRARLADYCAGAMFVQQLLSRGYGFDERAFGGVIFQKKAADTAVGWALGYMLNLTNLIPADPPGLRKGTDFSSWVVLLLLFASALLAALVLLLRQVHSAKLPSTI
Procedure: […] Cells were rinsed thoroughly with 1×PBS and treated with Accutase (Millipore #SCR005) to lift from growth plates and resuspended at approximately 1×10^5 cells/90 μL in 1× FACS buffer (2% FBS+0.1% NaN3 in PBS). In a 96-well U-bottom plate, 10 μL of 10× antibody solution in FACS buffer was pre-seeded and 90 μL of cell suspension was added. Cell were incubated for 30 minutes at 4° C., washed 1× with cold PBS and resuspended in 100 μL of 1:500 secondary antibody 1× FACS buffer (Allophycocyanin conjugated F(ab′)2 goat anti-human IgG, Fcγ specific; Jackson Immunoresearch, Cat#109-136-098). After additional incubation for 15 min at 4° C., cells were washed twice with PBS and resuspended in 100 μL of 1×FACS buffer with 4 μg/mL propidium iodide (Life Technologies, Cat#P3566). Geometric mean fluorescence intensity was calculated on live single cells using FlowJo software.

cyno ENTPD2 = test: FACS binding to cyno ENTPD2 expressing cells (apparent FACS affinity); set-up: species or system cynomolgus monkey
Sequence of cyno ENTPD2 (as listed by the source): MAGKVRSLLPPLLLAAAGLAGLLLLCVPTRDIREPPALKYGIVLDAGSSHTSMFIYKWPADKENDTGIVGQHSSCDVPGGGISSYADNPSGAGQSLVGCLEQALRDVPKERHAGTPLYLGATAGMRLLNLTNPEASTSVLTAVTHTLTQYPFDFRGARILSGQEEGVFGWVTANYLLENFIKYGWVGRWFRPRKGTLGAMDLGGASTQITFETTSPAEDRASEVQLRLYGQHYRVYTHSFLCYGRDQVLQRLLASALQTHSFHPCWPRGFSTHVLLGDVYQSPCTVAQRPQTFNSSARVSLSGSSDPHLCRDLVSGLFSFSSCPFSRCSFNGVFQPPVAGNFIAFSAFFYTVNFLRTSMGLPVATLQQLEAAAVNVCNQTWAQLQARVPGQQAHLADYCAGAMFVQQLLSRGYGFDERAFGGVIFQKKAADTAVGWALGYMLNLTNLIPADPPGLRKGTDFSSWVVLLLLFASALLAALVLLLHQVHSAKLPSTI
Procedure: (§1) FACS screening: Specific binding of candidate antibodies to endogenously expressed ENTPD2 was assessed by flow cytometry. Cells were rinsed thoroughly with 1×PBS and treated with Accutase (Millipore #SCR005) to lift from growth plates and resuspended at approximately 1×10^5 cells/90 μL in 1× FACS buffer (2% FBS+0.1% NaN3 in PBS). In a 96-well U-bottom plate, 10 μL of 10× antibody solution in FACS buffer was pre-seeded and 90 μL of cell suspension was added. Cell were incubated for 30 minutes at 4° C., washed 1× with cold PBS and resuspended in 100 μL of 1:500 secondary antibody 1× FACS buffer (Allophycocyanin conjugated F(ab′)2 goat anti-human IgG, Fcγ specific; Jackson Immunoresearch, Cat#109-136-098). After additional incubation for 15 min at 4° C., cells were washed twice with PBS and resuspended in 100 μL of 1×FACS buffer with 4 μg/mL propidium iodide (Life Technologies, Cat#P3566). Geometric mean fluorescence intensity was calculated on live single cells using FlowJo software.

H520 cells = test: Cross reactivity: FACS binding to H520 cells (ENTPD3 and ENTPD8 expression); set-up: species or system human; conditions: 50 nM antibody
Procedure: as §1
H520 cells were identified as a cancer cell line with ENTPD3 (Ct 25) and ENTPD8 (Ct 26) expression by Taqman and were used for selectivity screening.

B1: mAb13: anti-mouse ENTPD2 antibody; HC SEQ ID NO: 193, LC SEQ ID NO: 204 (antibody)
heavy: QVQLVQSGAELKQPGQSVKISCKASGYTFTHYGMNWVKQAPGQGLKWMGWINTDTGNPTYADDFKGRFVFSLDTSVSTAYLQISNLKNEDTATYYCVRYGTLYSGYGFFFDSWGQGTLVTVSSAKTTAPSVYPLAPVCGDTTGSSVTLGCLVKGYFPEPVTLTWNSGSLSSGVHTFPAVLQSDLYTLSSSVTVTSSTWPSQSITCNVAHPASSTKVDKKIEPRGPTIKPCPPCKCPAPNLLGGPSVFIFPPKIKDVLMISLSPIVTCVVVDVSEDDPDVQISWFVNNVEVHTAQTQTHREDYNSTLRVVSALPIQHQDWMSGKEFKCKVNNKDLPAPIERTISKPKGSVRAPQVYVLPPPEEEMTKKQVTLTCMVTDFMPEDIYVEWTNNGKTELNYKNTEPVLDSDGSYFMYSKLRVEKKNWVERNSYSCSVVHEGLHNHHTTKSFSRTPGK
light: DIMMTQSPSSLSVSAGEKATITCKSSQSLFNSNTNKNYLNWYLQKPGQSPKLLFYYASTRHTGVPDRFIGSGSGTDFTLTITSVQDEDLADYYCQQWYSYPWTFGPGTKLEIKRADAAPTVSIFPPSSEQLTSGGASVVCFLNNFYPKDINVKWKIDGSERQNGVLNSWTDQDSKDSTYSMSSTLTLTKDEYERHNSYTCEATHKTSTSPIVKSFNRNEC
- mouse survival (B16LM3 tumor model): significantly extended mouse survival
- binding to human ENTPD2 (ENTPD2): no binding
- binding to cyno ENTPD2 (cyno ENTPD2): no binding

B2: mAb7: humanized anti-human ENTPD2 antibody from mAb17; VH SEQ ID NO: 25, VL SEQ ID NO: 78 (antibody, V domains shown)
VH: QVQLVQSGAEVVKPGASVKISCKASGYTFTDYNMDWVKQAPGQRLEWIGDINPKYDISTYNQQFKGKATITVDKSASTAYMELSSLRSEDTAVYYCARRGFFLYYGINYYYFDVWGQGTLVTVSS
VL: EIVLTQSPATLSASPGEEITLSCSASSSVSYIHWYQQKPGQAPRLLIYSTSNLASGIPARFSGSGSGTFYTLTISSVEPEDAAVYYCHQWSSYPWTFGGGTKLEIK
- EC50 (ENTPD2; NIH3T3 humanENTPD2 cells): 500 pM
- Apparent FACS binding at 50 nM (H520 cells): No binding
- EC50 (cyno ENTPD2; NIH3T3 cynoENTPD2 cells): 800 pM
